The text below walks through data of publication PMC5201023, “An unconventional interaction between Dis1/TOG and Mal3/EB1 in fission yeast promotes the fidelity of chromosome segregation” (Journal of Cell Science, 2016).

T1: Dis1–HA (full-length Dis1 with a hemagglutinin tag at its C-terminus) (Schizosaccharomyces pombe, UniProt Q09933 1-882)
T1 construct: Dis1, fission yeast (S. pombe) member of the XMAP215/TOG family; cDNA optimised for E. coli codons; also called recombinant Dis1 with an HA tag; source: bacterially expressed, purified (IgG Sepharose, Precision protease); not shown: HA, C-terminal, kept
T1 sequence (looked up): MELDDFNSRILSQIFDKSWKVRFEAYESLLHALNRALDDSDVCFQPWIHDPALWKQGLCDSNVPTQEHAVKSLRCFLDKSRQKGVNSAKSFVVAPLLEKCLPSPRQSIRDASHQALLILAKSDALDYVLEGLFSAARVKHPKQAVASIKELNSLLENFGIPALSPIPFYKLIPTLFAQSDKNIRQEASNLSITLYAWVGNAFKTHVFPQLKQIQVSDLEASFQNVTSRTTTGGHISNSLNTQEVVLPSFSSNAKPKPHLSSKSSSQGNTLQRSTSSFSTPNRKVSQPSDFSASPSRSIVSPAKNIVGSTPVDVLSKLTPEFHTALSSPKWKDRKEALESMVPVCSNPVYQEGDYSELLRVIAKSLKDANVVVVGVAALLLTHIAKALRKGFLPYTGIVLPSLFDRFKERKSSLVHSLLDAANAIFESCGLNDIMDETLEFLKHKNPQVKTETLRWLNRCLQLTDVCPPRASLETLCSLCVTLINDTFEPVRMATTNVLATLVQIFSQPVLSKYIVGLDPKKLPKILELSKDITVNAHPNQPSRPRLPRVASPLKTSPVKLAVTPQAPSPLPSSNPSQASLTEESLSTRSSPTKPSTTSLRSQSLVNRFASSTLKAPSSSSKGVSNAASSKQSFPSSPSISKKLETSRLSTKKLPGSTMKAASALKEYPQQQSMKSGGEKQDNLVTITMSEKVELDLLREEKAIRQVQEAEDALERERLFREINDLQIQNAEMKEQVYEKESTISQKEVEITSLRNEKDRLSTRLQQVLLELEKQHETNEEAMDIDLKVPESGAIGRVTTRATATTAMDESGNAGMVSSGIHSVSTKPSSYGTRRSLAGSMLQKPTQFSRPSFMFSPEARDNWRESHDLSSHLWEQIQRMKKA

T2: Dis1 C1–eGFP (amino acids 520–882) (Schizosaccharomyces pombe, UniProt Q09933 520-882)
T2 construct: source: bacterially expressed, purified (as the other Dis1–eGFP constructs)
T2 sequence (looked up): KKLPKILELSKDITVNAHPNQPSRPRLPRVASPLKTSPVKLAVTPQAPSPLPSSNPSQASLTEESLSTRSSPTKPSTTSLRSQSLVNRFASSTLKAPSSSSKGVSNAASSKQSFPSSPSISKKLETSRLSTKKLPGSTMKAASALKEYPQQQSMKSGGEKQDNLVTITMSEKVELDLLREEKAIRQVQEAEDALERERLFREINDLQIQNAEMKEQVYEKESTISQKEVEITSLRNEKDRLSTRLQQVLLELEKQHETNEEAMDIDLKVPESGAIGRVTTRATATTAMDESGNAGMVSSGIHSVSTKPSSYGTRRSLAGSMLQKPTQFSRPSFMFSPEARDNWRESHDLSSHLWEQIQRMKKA

B1: Dis1–eGFP (full-length Dis1 with eGFP fused to its C-terminus) (natural protein, Schizosaccharomyces pombe, UniProt Q09933 1-882, looked up)
chain: T1 sequence (looked up)
B2: Mal3 (recombinant full-length, without fluorescent protein) (natural protein, Schizosaccharomyces pombe, UniProt Q10113 1-308, looked up)
chain: MSESRQELLAWINQVTSLGLTRIEDCGKGYAMIQIFDSIYQDIPLKKVNFECNNEYQYINNWKVLQQVFLKKGIDKVVDPERLSRCKMQDNLEFVQWAKRFWDQYYPGGDYDALARRGNRGPANTRVMNSSAGATGPSRRRQVSSGSSTPSMTKSSANNNNVSSTANTAAVLRAKQAQQQITSLETQLYEVNETMFGLERERDFYFNKLREIEILVQTHLTTSPMSMENMLERIQAILYSTEDGFELPPDQPADLTTALTDHDTNNVAEEAQMTDLKDSETQRVPSAPDFVHARLQSLEVDDDENITF
notes: Mal3, the sole EB1 homologue of fission yeast; also called unlabelled Mal3; source: bacterially expressed, purified (as in Maurer et al., 2011)
B3: GST–Mal3 (GST-tagged Mal3) (natural protein, Schizosaccharomyces pombe, UniProt Q10113 1-308, looked up)
chain: B2 chain
notes: Mal3, the sole EB1 homologue of fission yeast; also called Mal3 FL
B4: Dis1 C2–eGFP (amino acids 690–882) (domain or fragment, Schizosaccharomyces pombe, UniProt Q09933 690-882, looked up)
chain: EKVELDLLREEKAIRQVQEAEDALERERLFREINDLQIQNAEMKEQVYEKESTISQKEVEITSLRNEKDRLSTRLQQVLLELEKQHETNEEAMDIDLKVPESGAIGRVTTRATATTAMDESGNAGMVSSGIHSVSTKPSSYGTRRSLAGSMLQKPTQFSRPSFMFSPEARDNWRESHDLSSHLWEQIQRMKKA
notes: also called Dis1-C2–eGFP (WT); source: bacterially expressed, purified (as the other Dis1–eGFP constructs)
B5: Mal3 C4 (amino acids 174–247; C-terminal part of the coiled-coil and the EBH domain) (domain or fragment, Schizosaccharomyces pombe, UniProt Q10113 174-247, looked up)
chain: AKQAQQQITSLETQLYEVNETMFGLERERDFYFNKLREIEILVQTHLTTSPMSMENMLERIQAILYSTEDGFEL
notes: Homodimer in both crystal structures; also called Mal3 EBH domain; source: purified (His-tag resin, TEV protease, gel filtration)
B6: GST–Mal3 C1 (amino acids 144–308) (domain or fragment, Schizosaccharomyces pombe, UniProt Q10113 144-308, looked up)
chain: SSGSSTPSMTKSSANNNNVSSTANTAAVLRAKQAQQQITSLETQLYEVNETMFGLERERDFYFNKLREIEILVQTHLTTSPMSMENMLERIQAILYSTEDGFELPPDQPADLTTALTDHDTNNVAEEAQMTDLKDSETQRVPSAPDFVHARLQSLEVDDDENITF
notes: also called C-terminal half
B7: Dis1 peptide (amino acids 833–852) (peptide, UniProt Q09933 833-852, looked up)
peptide: RRSLAGSMLQKPTQFSRPSF
notes: source: spotted on the peptide array membrane

The target of test [1] is B2. As to the kind of experiment: cell-based or functional assay.
Test [2] addresses B1. As to the kind of experiment: TIRF microscopy on dynamic microtubules in vitro; Cy5-labelled MTs grown from immobilised GMPCPP-stabilised seeds; BRB80 with 85 mM KCl, 1 mM GTP, 10 mM β-mercaptoethanol, 0.1% Brij-35, 0.1% methylcellulose; 30±1°C; 10-20 nM Dis1–eGFP proteins with or without 20 nM-1 µM Mal3. To be noted: both partners purified.
Test [3] addresses T1, Dis1–HA (full-length Dis1 with a …). As to the kind of experiment: SEC; analytical gel filtration on Superose 6 10/300; 25 mM K-HEPES pH 7.5, 200 mM KCl, 1 mM EGTA, 1 mM MgCl2; 5 µM Dis1–eGFP with 10 µM tubulin, or 5 µM Dis1–HA with 20 µM Mal3. The following applies: both partners purified. (In gel filtration, larger molecules generally elute earlier.)
Test [4] deals with B1. As to the kind of experiment: pull-down; GST pulldown: 1 µM GST, GST–Mal3 or truncated GST–Mal3 on glutathione–Sepharose beads with 0.5 µM Dis1–eGFP proteins; BRB80 with 85 mM KCl, 0.01% Brij-35, 1 mM DTT; 1 h at 4°C. To be noted: both partners purified.
Test [5] addresses B3. As to the kind of experiment: pull-down; peptide competition: 1 µM GST–Mal3 on glutathione beads pre-incubated 30 min with Dis1 peptide (0, 0.5, 2.5, 5.0, 50, 100 µM), then 0.5 µM Dis1 C2–eGFP for 1 h. The following applies: both partners purified.
Test [6] concerns the target B2. As to the kind of experiment: TIRF microscopy on dynamic microtubules in vitro; Cy5-labelled MTs grown from immobilised GMPCPP-stabilised seeds; BRB80 with 85 mM KCl, 1 mM GTP, 10 mM β-mercaptoethanol, 0.1% Brij-35, 0.1% methylcellulose; 30±1°C; 10-20 nM Dis1–eGFP proteins with or without 20 nM-1 µM Mal3. The following applies: both partners purified.
For test [7], the target named is B4. As to the kind of experiment: pull-down; Mal3 (amino acids 174–247) mixed with wild-type or LAPA Dis1-C2–eGFP and pulled down by GFP trap beads. The following applies: both partners purified.
Test [8] has as its target T2, Dis1 C1–eGFP (amino acids 520–882). As to the kind of experiment: pull-down; GST pulldown: 1 µM GST, GST–Mal3 or truncated GST–Mal3 on glutathione–Sepharose beads with 0.5 µM Dis1–eGFP proteins; BRB80 with 85 mM KCl, 0.01% Brij-35, 1 mM DTT; 1 h at 4°C. The following applies: both partners purified.

Take B1: the “MT catastrophe frequency with Mal3 and Dis1 together, fold over tubulin alone (Mal3 alone ∼1.9-fold, Dis1 alone no effect)” value in test [1] is roughly 3.8 fold.

For the molecule B2, the binding result in test [2] and in test [3] was “binds” in each case. Turning to B3, in test [4], the binding result is “binds”. With B4, the binding result in test [5] and in test [6] was “binds” in each case.

Consider B5, for which, in test [7], the binding result is “binds”. B6: in test [8], the binding result was “binds”.

Regarding B7, the binding result in test [5] is “binds”.
